The chains are these.
B1: AT695 (peptide)
peptide: EGTFISEYSI[Aib]LEKIK([AEEA-AEEA-γGlu-C18 diacid])QQEFVEWLLAQKPSSGAPPPS-OH
modifications: N-terminus assumed
SMILES: CC[C@H](C)[C@H](NC(=O)[C@H](CCCCN)NC(=O)[C@H](CCC(=O)O)NC(=O)[C@H](CC(C)C)NC(=O)C(C)(C)NC(=O)[C@@H](NC(=O)[C@H](CO)NC(=O)[C@H](Cc1ccc(O)cc1)NC(=O)[C@H](CCC(=O)O)NC(=O)[C@H](CO)NC(=O)[C@@H](NC(=O)[C@H](Cc1ccccc1)NC(=O)[C@@H](NC(=O)CNC(=O)[C@@H](N)CCC(=O)O)[C@@H](C)O)[C@@H](C)CC)[C@@H](C)CC)C(=O)N[C@@H](CCCCNC(=O)COCCOCCNC(=O)COCCOCCNC(=O)CC[C@H](NC(=O)CCCCCCCCCCCCCCCCC(=O)O)C(=O)O)C(=O)N[C@@H](CCC(N)=O)C(=O)N[C@@H](CCC(N)=O)C(=O)N[C@@H](CCC(=O)O)C(=O)N[C@@H](Cc1ccccc1)C(=O)N[C@H](C(=O)N[C@@H](CCC(=O)O)C(=O)N[C@@H](Cc1c[nH]c2ccccc12)C(=O)N[C@@H](CC(C)C)C(=O)N[C@@H](CC(C)C)C(=O)N[C@@H](C)C(=O)N[C@@H](CCC(N)=O)C(=O)N[C@@H](CCCCN)C(=O)N1CCC[C@H]1C(=O)N[C@@H](CO)C(=O)N[C@@H](CO)C(=O)NCC(=O)N[C@@H](C)C(=O)N1CCC[C@H]1C(=O)N1CCC[C@H]1C(=O)N1CCC[C@H]1C(=O)N[C@@H](CO)C(=O)O)C(C)C
B2: AT696 (peptide)
peptide: EGTFISEYSI[Aib][Nle]EKIK([AEEA-AEEA-γGlu-C18 diacid])QQEFVEWLLAQKPSSGAPPPS-OH
modifications: N-terminus assumed
SMILES: CCCC[C@H](NC(=O)C(C)(C)NC(=O)[C@@H](NC(=O)[C@H](CO)NC(=O)[C@H](Cc1ccc(O)cc1)NC(=O)[C@H](CCC(=O)O)NC(=O)[C@H](CO)NC(=O)[C@@H](NC(=O)[C@H](Cc1ccccc1)NC(=O)[C@@H](NC(=O)CNC(=O)[C@@H](N)CCC(=O)O)[C@@H](C)O)[C@@H](C)CC)[C@@H](C)CC)C(=O)N[C@@H](CCC(=O)O)C(=O)N[C@@H](CCCCN)C(=O)N[C@H](C(=O)N[C@@H](CCCCNC(=O)COCCOCCNC(=O)COCCOCCNC(=O)CC[C@H](NC(=O)CCCCCCCCCCCCCCCCC(=O)O)C(=O)O)C(=O)N[C@@H](CCC(N)=O)C(=O)N[C@@H](CCC(N)=O)C(=O)N[C@@H](CCC(=O)O)C(=O)N[C@@H](Cc1ccccc1)C(=O)N[C@H](C(=O)N[C@@H](CCC(=O)O)C(=O)N[C@@H](Cc1c[nH]c2ccccc12)C(=O)N[C@@H](CC(C)C)C(=O)N[C@@H](CC(C)C)C(=O)N[C@@H](C)C(=O)N[C@@H](CCC(N)=O)C(=O)N[C@@H](CCCCN)C(=O)N1CCC[C@H]1C(=O)N[C@@H](CO)C(=O)N[C@@H](CO)C(=O)NCC(=O)N[C@@H](C)C(=O)N1CCC[C@H]1C(=O)N1CCC[C@H]1C(=O)N1CCC[C@H]1C(=O)N[C@@H](CO)C(=O)O)C(C)C)[C@@H](C)CC
B3: AT697 (peptide)
peptide: [γGlu]GTFISDYSIA[Nle]DKIK(C16 diacid)QQDFVEWLLAQKPSSGAPPPS-OH
modifications: N-terminus assumed
SMILES: CCCC[C@H](NC(=O)[C@H](C)NC(=O)[C@@H](NC(=O)[C@H](CO)NC(=O)[C@H](Cc1ccc(O)cc1)NC(=O)[C@H](CC(=O)O)NC(=O)[C@H](CO)NC(=O)[C@@H](NC(=O)[C@H](Cc1ccccc1)NC(=O)[C@@H](NC(=O)CNC(=O)CC[C@H](N)C(=O)O)[C@@H](C)O)[C@@H](C)CC)[C@@H](C)CC)C(=O)N[C@@H](CC(=O)O)C(=O)N[C@@H](CCCCN)C(=O)N[C@H](C(=O)N[C@@H](CCCCNC(=O)CCCCCCCCCCCCCCC(=O)O)C(=O)N[C@@H](CCC(N)=O)C(=O)N[C@@H](CCC(N)=O)C(=O)N[C@@H](CC(=O)O)C(=O)N[C@@H](Cc1ccccc1)C(=O)N[C@H](C(=O)N[C@@H](CCC(=O)O)C(=O)N[C@@H](Cc1c[nH]c2ccccc12)C(=O)N[C@@H](CC(C)C)C(=O)N[C@@H](CC(C)C)C(=O)N[C@@H](C)C(=O)N[C@@H](CCC(N)=O)C(=O)N[C@@H](CCCCN)C(=O)N1CCC[C@H]1C(=O)N[C@@H](CO)C(=O)N[C@@H](CO)C(=O)NCC(=O)N[C@@H](C)C(=O)N1CCC[C@H]1C(=O)N1CCC[C@H]1C(=O)N1CCC[C@H]1C(=O)N[C@@H](CO)C(=O)O)C(C)C)[C@@H](C)CC
B4: AT694 (peptide)
peptide: EGTFISEYSIA[Nle]EKIK([AEEA-AEEA-γGlu-C18 diacid])QQEFVEWLLAQKPSSGAPPPS-OH
modifications: N-terminus assumed
SMILES: CCCC[C@H](NC(=O)[C@H](C)NC(=O)[C@@H](NC(=O)[C@H](CO)NC(=O)[C@H](Cc1ccc(O)cc1)NC(=O)[C@H](CCC(=O)O)NC(=O)[C@H](CO)NC(=O)[C@@H](NC(=O)[C@H](Cc1ccccc1)NC(=O)[C@@H](NC(=O)CNC(=O)[C@@H](N)CCC(=O)O)[C@@H](C)O)[C@@H](C)CC)[C@@H](C)CC)C(=O)N[C@@H](CCC(=O)O)C(=O)N[C@@H](CCCCN)C(=O)N[C@H](C(=O)N[C@@H](CCCCNC(=O)COCCOCCNC(=O)COCCOCCNC(=O)CC[C@H](NC(=O)CCCCCCCCCCCCCCCCC(=O)O)C(=O)O)C(=O)N[C@@H](CCC(N)=O)C(=O)N[C@@H](CCC(N)=O)C(=O)N[C@@H](CCC(=O)O)C(=O)N[C@@H](Cc1ccccc1)C(=O)N[C@H](C(=O)N[C@@H](CCC(=O)O)C(=O)N[C@@H](Cc1c[nH]c2ccccc12)C(=O)N[C@@H](CC(C)C)C(=O)N[C@@H](CC(C)C)C(=O)N[C@@H](C)C(=O)N[C@@H](CCC(N)=O)C(=O)N[C@@H](CCCCN)C(=O)N1CCC[C@H]1C(=O)N[C@@H](CO)C(=O)N[C@@H](CO)C(=O)NCC(=O)N[C@@H](C)C(=O)N1CCC[C@H]1C(=O)N1CCC[C@H]1C(=O)N1CCC[C@H]1C(=O)N[C@@H](CO)C(=O)O)C(C)C)[C@@H](C)CC
B5: AT698 (peptide)
peptide: [d(γGlu)]GTFISDYSIA[Nle]DKIK(C16 diacid)QQDFVEWLLAQKPSSGAPPPS-OH
modifications: N-terminus assumed
SMILES: CCCC[C@H](NC(=O)[C@H](C)NC(=O)[C@@H](NC(=O)[C@H](CO)NC(=O)[C@H](Cc1ccc(O)cc1)NC(=O)[C@H](CC(=O)O)NC(=O)[C@H](CO)NC(=O)[C@@H](NC(=O)[C@H](Cc1ccccc1)NC(=O)[C@@H](NC(=O)CNC(=O)CC[C@@H](N)C(=O)O)[C@@H](C)O)[C@@H](C)CC)[C@@H](C)CC)C(=O)N[C@@H](CC(=O)O)C(=O)N[C@@H](CCCCN)C(=O)N[C@H](C(=O)N[C@@H](CCCCNC(=O)CCCCCCCCCCCCCCC(=O)O)C(=O)N[C@@H](CCC(N)=O)C(=O)N[C@@H](CCC(N)=O)C(=O)N[C@@H](CC(=O)O)C(=O)N[C@@H](Cc1ccccc1)C(=O)N[C@H](C(=O)N[C@@H](CCC(=O)O)C(=O)N[C@@H](Cc1c[nH]c2ccccc12)C(=O)N[C@@H](CC(C)C)C(=O)N[C@@H](CC(C)C)C(=O)N[C@@H](C)C(=O)N[C@@H](CCC(N)=O)C(=O)N[C@@H](CCCCN)C(=O)N1CCC[C@H]1C(=O)N[C@@H](CO)C(=O)N[C@@H](CO)C(=O)NCC(=O)N[C@@H](C)C(=O)N1CCC[C@H]1C(=O)N1CCC[C@H]1C(=O)N1CCC[C@H]1C(=O)N[C@@H](CO)C(=O)O)C(C)C)[C@@H](C)CC

*1 amine or outer side, *2 acyl side, *3 side chain or, on linkers, in order; H or OH if unused. Where no end group is shown, it is not given here. Side-chain parts run from the residue outwards. [ ]: non-standard residue; d: D form. The star is where a group is joined. d(γGlu) = O=C(O)[C@@H](CCC(=O)[*:2])N[*:1]; C18 diacid = O=C(O)CCCCCCCCCCCCCCCCC(=O)*; C16 diacid = O=C(O)CCCCCCCCCCCCCCC(=O)*; γGlu = O=C(O)[C@H](CCC(=O)[*:2])N[*:1]; Glutaryl = O=C(CCCC(=O)[*:2])[*:1]; Nle = CCCC[C@H](N)C(=O)O; AEEA = NCCOCCOCC(=O)O; Aib = CC(C)(N)C(=O)O

This test has as its target T1, human GIP receptor (human, UniProt P48546 22-466).
T1 sequence (looked up): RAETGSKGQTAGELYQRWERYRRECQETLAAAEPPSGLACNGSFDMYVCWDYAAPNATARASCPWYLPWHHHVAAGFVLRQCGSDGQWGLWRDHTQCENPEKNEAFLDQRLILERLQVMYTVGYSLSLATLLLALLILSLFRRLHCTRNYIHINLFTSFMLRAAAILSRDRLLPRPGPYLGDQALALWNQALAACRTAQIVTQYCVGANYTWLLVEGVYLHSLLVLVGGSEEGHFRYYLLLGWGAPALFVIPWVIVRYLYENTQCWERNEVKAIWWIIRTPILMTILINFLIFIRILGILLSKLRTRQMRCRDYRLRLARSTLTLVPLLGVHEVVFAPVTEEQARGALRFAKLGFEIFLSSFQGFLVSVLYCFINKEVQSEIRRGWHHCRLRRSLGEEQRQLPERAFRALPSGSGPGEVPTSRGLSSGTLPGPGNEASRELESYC
Nature of the test: cell-based or functional assay.
Turning to Glutaryl-GTFISDYSIA[Nle]DKIK([AEEA-AEEA-γGlu-C18 diacid])QQDFVEWLLAQKPSSGAPPPS-OH [AT702], the “cAMP agonism % Emax” value stood at 0%, the “cAMP antagonism” value is 3.55 nM, the “cAMP antagonism % inhib” value was 85% and the “cAMP antagonism pIC50” value came to 8.5.

For the molecule B1, the “cAMP agonism % Emax” value is 0%, the “cAMP antagonism” value amounted to 0.794 nM, the “cAMP antagonism % inhib” value was 98% and the “cAMP antagonism pIC50” value is 9.1.

For B2, the “cAMP agonism % Emax” value amounted to 0%, the “cAMP antagonism” value was 0.584 nM, the “cAMP antagonism % inhib” value was 97% and the “cAMP antagonism pIC50” value worked out at 9.2.

For the molecule B3, the “cAMP agonism % Emax” value is 8%, the “cAMP antagonism” value turned out to be 2.82 nM, the “cAMP antagonism % inhib” value came to 81% and the “cAMP antagonism pIC50” value stood at 8.6.

As to B4, the “cAMP agonism % Emax” value was 4%, the “cAMP antagonism” value is 1.47 nM, the “cAMP antagonism % inhib” value is 88% and the “cAMP antagonism pIC50” value was 8.8.

Consider Glutaryl-GTFISDYSIA[Nle]DKIK(C16 diacid)QQDFVEWLLAQKPSSGAPPPS-OH [AT700], for which the “cAMP agonism % Emax” value amounted to 3%, the “cAMP antagonism” value amounted to 0.708 nM, the “cAMP antagonism % inhib” value is 89% and the “cAMP antagonism pIC50” value is 9.2.

EGTFISDYSIALDKIKQQDFVNWLLAQKPSSGAPPPS (βGlu at 3; Aib at 13; Nle at 14; K18: C16-diacid; C-term COOH) [AT703]: the “cAMP agonism % Emax” value was 0%, the “cAMP antagonism” value was determined as 4.3 nM, the “cAMP antagonism % inhib” value came to 93% and the “cAMP antagonism pIC50” value was 8.6.

[βGlu]GTFISDYSIA[Nle]DKIK(C16 diacid)QQDFVEWLLAQKPSSGAPPPS-OH [AT699]: the “cAMP agonism % Emax” value came to 0%, the “cAMP antagonism” value was 6.31 nM, the “cAMP antagonism % inhib” value is 88% and the “cAMP antagonism pIC50” value came to 8.2.

For [βGlu]GTFISDYSIA[Nle]DKIK([AEEA-AEEA-γGlu-C18 diacid])QQDFVEWLLAQKPSSGAPPPS-OH [AT701], the “cAMP agonism % Emax” value came out at 13%, the “cAMP antagonism” value came out at 12.6 nM, the “cAMP antagonism % inhib” value is 63% and the “cAMP antagonism pIC50” value is 7.9.

With B5, the “cAMP agonism % Emax” value is 8%, the “cAMP antagonism” value was determined as 9.26 nM, the “cAMP antagonism % inhib” value was determined as 78% and the “cAMP antagonism pIC50” value came out at 8.

For the origin of these results see patent US20220298218A1 (ANTAG THERAPEUTICS, published 2022).
